Here are results for 1 substance from paper PMC4937304.

Several values for one entry are separate records, joined by “and”; a condition that tells them apart may be missing. Identical values can stand only once.

The target in this assay is Snf1 (wild type) (S. cerevisiae (endogenous in yeast)) (UniProt P06782). Put plainly: pull-down.
Chain of UniProt P06782 (P06782 whole entry): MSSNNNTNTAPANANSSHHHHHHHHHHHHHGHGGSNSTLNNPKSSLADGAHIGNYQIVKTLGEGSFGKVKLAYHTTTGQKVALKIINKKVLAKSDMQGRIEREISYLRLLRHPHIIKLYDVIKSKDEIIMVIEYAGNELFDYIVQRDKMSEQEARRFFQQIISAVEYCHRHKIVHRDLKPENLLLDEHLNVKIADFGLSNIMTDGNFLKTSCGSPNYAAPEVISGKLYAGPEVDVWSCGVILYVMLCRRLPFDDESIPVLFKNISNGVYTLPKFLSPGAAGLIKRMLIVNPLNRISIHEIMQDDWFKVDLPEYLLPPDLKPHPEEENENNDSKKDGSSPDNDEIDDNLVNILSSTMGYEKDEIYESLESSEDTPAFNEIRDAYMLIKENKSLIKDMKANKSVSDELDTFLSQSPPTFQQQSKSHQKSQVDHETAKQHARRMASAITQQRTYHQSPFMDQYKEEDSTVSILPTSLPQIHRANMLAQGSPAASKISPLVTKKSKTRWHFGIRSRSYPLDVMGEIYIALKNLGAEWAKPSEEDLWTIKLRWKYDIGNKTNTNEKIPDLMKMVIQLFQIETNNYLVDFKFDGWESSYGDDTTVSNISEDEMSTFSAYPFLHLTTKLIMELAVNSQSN

For “Bmh (Bmh1 and Bmh2, collectively) (from UniProt P29311 1-267) (natural protein)”, the percent of Snf1 bound to Bmh was 30% and 50%.
